Paper PMC8309402, “Evolutionary Implications of a Peroxidase with High Affinity for Cinnamyl Alcohols from Physcomitrium patens, a Non-Vascular Plant” (Plants, 2021)

What was measured:
purified protein [1] = substrate: COc1cc(/C=C/CO)cc(OC)c1O; test: purified protein; type: biochemical, Physcomitrium patens; conditions: 0.5 mM H2O2 (saturating), 50 mM sodium acetate pH 5.0, 1-110 μM substrate
purified protein [2] = substrate: COc1cc(/C=C/CO)ccc1O; test: purified protein; type: biochemical, Physcomitrium patens; conditions: 0.5 mM H2O2 (saturating), 50 mM sodium acetate pH 5.0, 5-100 μM substrate

B1: PpaPrx19 (Physcomitrium patens) (protein)
chain: TTDFYAKSCPRIHSIVKAEIKKAVNVEKRMAASLIRLHFHDCFVHGCDGSILLDSIPGMDSEKFAPPNDRSARGYEAIDAIKVALEKACPRTVSCADILAIAYRDSAVEVGLVPEYPVPFGRRDSLRAAPIAEVNLRLPGPDFDISTLKASFANQSLDERDLVALSGAHTIGRVRCQFVRLFLNDPGTNADFKKELARLCAPTVDAFTLQNLDLKTPDKFDNNYYKNLRRGEGIIRSDQVLWSSEGTHQKITKDFAENQENFFRQFIESSIKMGKIKPPPGSPSEIRLNCHQANPRPLIEQVVAVE
notes: native, purified from gametophores (ammonium sulfate, phenyl Sepharose, SP Sepharose); mature secreted protein, 332 aa precursor incl; 26 aa N-terminal signal peptide (predicted); 46 kDa lipase (XP_001755452) co-purified
Km (purified protein [1]): 20.8 µM
kcat (purified protein [1]): 281 s⁻¹
kcat/Km (purified protein [1]): 1.35e+07 M⁻¹ s⁻¹
Km (purified protein [2]): 16.7 µM
kcat (purified protein [2]): 3940 s⁻¹
kcat/Km (purified protein [2]): 2.36e+08 M⁻¹ s⁻¹
